According to publication doi:10.1101/2023.03.03.530962:
pKi: −log10 of the molar value.

Experiments:
[1] = molecular target: PICK1 (protein interacting with C-kinase 1) (UniProt Q9EP80)
Sequence of UniProt Q9EP80 (Q9EP80 whole entry): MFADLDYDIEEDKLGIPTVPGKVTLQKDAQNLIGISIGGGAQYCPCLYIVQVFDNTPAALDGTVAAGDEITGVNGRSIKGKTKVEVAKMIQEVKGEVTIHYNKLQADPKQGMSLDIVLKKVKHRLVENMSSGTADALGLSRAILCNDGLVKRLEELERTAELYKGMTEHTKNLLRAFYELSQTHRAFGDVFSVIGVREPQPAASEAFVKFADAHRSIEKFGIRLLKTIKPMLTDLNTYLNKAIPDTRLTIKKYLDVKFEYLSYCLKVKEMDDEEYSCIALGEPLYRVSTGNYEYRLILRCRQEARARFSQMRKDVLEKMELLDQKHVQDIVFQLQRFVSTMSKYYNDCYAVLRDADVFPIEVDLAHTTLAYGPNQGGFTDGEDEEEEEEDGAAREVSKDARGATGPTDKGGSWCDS

Substance | pKi [1] | stoichiometry N (GCN4-GS (yeast))
GCN4(7P14P)-HWLKV (peptide) | 6.26 | 
GCN4-GS (peptide) |  | 2
GCN4-HWLKV (peptide) | 6.92 | 
